Data from patent US10532083B2, “Methods for inducing differentiation or conversion of white adipocytes and/or preadipocytes to brown adipocites using FGF8” (Technische Universität München, priority 2014, dated 2020).

System: epididymal white adipose tissue
Format: in vivo, adult male 129Sv/ev mice
Excerpt: Implantation of Ffg8b releasing pellets into the visceral, epididymal white adipose tissue depot leads to recruitment of brown adipocytes. A—Representative photographs centered on the implantation site of three control pellets (upper panels) and three Fgf8b pellets (lower panels). The epididymal fat depot is discernible in light gray shades surrounded by darker non-adipose tissues. The area of visible browning is marked by a dotted line. B—To highlight “visual browning” in this gray-scale images we digitally removed all pixels with a colour saturation of more than 162 (on a scale of 0-255). Here, white areas correspond to brown colour on a background of whitish adipose tissue. C—The mRNA abundance of several brown adipocyte marker genes in the entire depot. Ucp1 and Cox7a1 mRNA are increased by Fgf8b treatment but not by the placebo pellet. Physiological data of animals implanted with drug release pellets. A—The absolute body mass of mice was not altered by Fgf8b. […] C—The masses of the implanted epididymal fat depot and the contralateral non-implanted depot were not different. Interscapular brown adipose tissue was not different in placebo and Fgf8b treated animals. […] E—Plasma metabolites of carbohydrate and lipid metabolisms were not affected by Fgf8b treatment (GLU—glucose, CHOL—total cholesterol, nHDLc—non-HDL cholesterol, HDL—high density lipoproteins, LDL—low density lipoproteins, VLDL—very low density lipoproteins, TRIG—triglycerides). F—Liver enzymes in the plasma were not altered by Fgf8b treatment. Pellets 1.5 mm in diameter were fabricated from a biodegradable matrix to locally release 100 ng FGF8b per day for 21 days (Innovative Research of America, Sarasota, Fla., USA). […] To implant a pellet into the subcutaneous adipose tissue, a mouse of the 129Sv/ev strain was anesthetized, abdominal fur removed and the pellet pushed into the depot through a short cut in the skin. To target the visceral adipose tissue, the pellet was introduced through a small cut each into skin and abdominal wall and placed between lobes of epididymal adipose tissue. Mice were kept in a specific pathogen free barrier facility at room temperature in a 12:12 hour light:dark cycle with free access to food and water. Three weeks after implantation mice were killed by carbon dioxide exposure and dissected. Blood parameters were analyzed with an automated clinical chemistry analyzer (Piccolo xpress system, Abaxis, Darmstadt, Germany). All animal experiments were performed according to the German animal welfare law (permission no. 55.2-1-54-2532-174-11). To investigate the ability of FGF8b to transform white adipose tissue into brown adipose tissue in vivo, we obtained pellets that release 100 ng FGF8b per day and placebo pellets. One pellet each was implanted into the epididymal white adipose tissue of adult male 129Sv/ev mice. After three weeks mice were sacrificed and the tissue analyzed. […] In summary, we found no evidence of any gross metabolic difference between treatment groups.

[1] = RNA preparation of complete unilateral epididymal depot, 100 ng per day, three weeks, vs placebo pellet

B1: FGF8b: murine recombinant paracrine fibroblast growth factor 8, major spliceform b (R&D Systems); amino acid sequence identical to human, SEQ ID NO:16/20 (protein)
chain: MGSPRSALSCLLLHLLVLCLQAQVTVQSSPNFTQHVREQSLVTDQLSRRLIRTYQLYSRTSGKHVQVLANKRINAMAEDGDPFAKLIVETDTFGSRVRVRGAETGLYICMNKKGKLIAKSNGKGKDCVFTEIVLENNYTALQNAKYEGWYMAFTRKGRPRKGSKTRQHQREVHFMKRLPRGHHTTEQSLRFEFLNYPPFTRSLRGSQRTWAPEPR
modifications: human FGF8b
What does the source list for B1?
Relationship between depot mass and body mass (100 ng per day, three weeks, vs placebo (FIG. 7D)): not influenced; Depot mass of implanted and non-implanted epididymal fat and of interscapular brown adipose tissue (100 ng per day, three weeks, vs placebo group): not different between groups; Final body weight (100 ng per day, three weeks, vs placebo group, lean healthy mice): comparable; Plasma metabolites of carbohydrate and lipid metabolisms (GLU, CHOL, nHDLc, HDL, LDL, VLDL, TRIG) (100 ng per day, three weeks, vs placebo, Piccolo xpress analyzer): not affected; Change in body weight during the 3 weeks of treatment (100 ng per day, vs placebo group): comparable; Cox7a1 mRNA abundance in the entire depot [1]: increased; Ucp1 mRNA abundance in the entire depot [1]: increased; Systemic adverse reaction (mouse, in vivo): no evidence for any systemic adverse reaction; Extent of browned area away from the implanted pellet (one pellet releasing 100 ng FGF8b per day, three weeks): approximately 3 mm; Colour of implantation site and surrounding adipose tissue by visual inspection (one pellet releasing 100 ng FGF8b per day, three weeks, placebo site and contralateral depot remained white): brown colour
